Source: the DeepSol protein solubility set

Assay: soluble on expression in E. coli; label from the status in PepcDB or PDB records

Sequence | soluble on expression in E. coli
MPLRILHTSDWHLGRSLFGRSRLHEFEAFLDWLAGTVESRGIELLVVAGDIFDTTTPGNATQKLYYQFLNRIALTPGSPCRHVVITSGNHDSPTFLDAPKELLRAFDVHVLGATTGDPADEVRLLRDRQGSPEAIVCAVPFLRDRDIRTVEPGESLEDKIRKLSDGVSLHYAEVARIAAERRRSLGADIPVIAMGHLFTAGCVTVEEDGVREIYAGALSIVCSTAFPPVFDYVALGHMHVPQRVDKTEHMRYCGSPIPMGFGEAKQQKLVLQVDFEGREPTVTEIEVPCFQPLERLAGSLDELSAAIAALRSAGSNAWLEIDYRGDEAPATVQEAMEQAVAGSLLEIRRIRNNRPLQQALRHSAANETLQQLDPEAVFNRCLEAYGTDESLRPALVESYREVLRSIREEDVMAEKEGKS | not soluble
MGSDKIHHHHHHMKVYLVGGAVRDQLLGLPVKDRDWIVVGADPATLLSLGYQQVGKDFPVFLNPKTKEEYALARTERKSSAGYTGFICDFSPTITLEQDLIRRDLTINAMAQSEDGEIIDPYGGKQDLENRILRHISPAFSEDPLRVLRVARFAARYHSLGFKIASETLALMAELAQSGELQHLTAERIWLETEKALNEKNPEIYFETLHKTGALSVLFSEIDALYGVPNPVKHHPEVDSFIHTMLVLKQAVNLTENNPILNKSAVRFAAICHDLGKALTPQNILPHHYGHEQAGIKPTRSLCKRLKVPSYFQELAELTCEFHTHIHKAFELRAETVITLFNRFDVWRKPQRFQEFLQVCLADTRGRTGFETKDYPQIDYINQLLHAANEVDVQQVIADGFEKQAIKNELTKRRILAVKQTKTNYPTN | not soluble
MSLDIIIVGSGAGGLTTASNIKKHDKNAKVTVITSDNYIAYSPCAIPYVIGEEIADFESIIMHTPEDYKAKGIDVIVEAEVLDVVSDENKIIYKKDATETELKYDNLVLATGGTPFVPPIEGVTLGGVFKVRTIEDGRKITEWAKDTKNAVVAGAGAIGIEIAFGLKELGLDVTVVEMVPQVFPRALDPDMAETVQKYLEEQGIKVILEKPVGKIIGNDKVESVLVGEETIPAEMVIMSTGVRSNIELAKRAGCEIGRWAVLTNEKMQTSIPNIYAVGDCVEVIDAITMQNTLSPFGTTAVRQGKVAAKTIANIEAEIKPVLNSMVSKIGKLEIGGTGMTETAAKMNGIEIVLGYSKALTRARYYPGGKPIYIKMVADKNTKKIIGCQIISEERVAERVDAMSVAIFNGMTVEELANQEFCYAPPVSMVIDPIVFAAEDTLDKEGHHHHHH | soluble
MGSDKIHHHHHHMIKWRDGKLGLPIKEAVELFPELKNFLDEKGRLDFSNREARILYNKAVAKVLFDLDIEYHPKGLVTPPISRYIFLKTFLRGGEKVLEIGTGHTALMSLIAEKVFKCDVTATELDNEFYSYAKLNIARNNSRIKLLKSSGGIIRGVVPRGERFDVIFSAPPYYEKHSGGVLTEREALGGGKFGEEFSIKLLNEALDYLNAGGKVALFLPHKRDLLNAIKMKGIRLGYEVRDILFKVGTRKRHSLILTV | not soluble
MSLQSLWIYPEDTEVLGAACKSLLKALKPRYQKIALFSPISGGCEGFGECESLSSLEVHSAIDKQKALELVSTAQEELLFETILKRYDELQSTHDFVINLGYAPKFFLNALLDLNTILAKHLNAPVVAVAQTSLDHLKAMHSHILKKEAPFAIGLFVGETLEKPHFLSASLCKQQCELEASAIENLLQTKSEIITPLAFQRSLEKKAKKQIKKVVLPESEDERILKAAHRLNLMGAVGLILLGDKEAINSQAKNLNLNLENVEIINPNTSHYREEFAKSLYELRKSKGLSEQEAERLALDKTYFATMLVHLGYAHAMVSGVNHTTAETIRPALQIIKTKPGVSLVSSVFLMCLDTQVFVFGDCAIIPNPSPKELAEIATTSAQTAKQFNIAPKVALLSYATGNSAQGEMIDKINEALTIVQKLDPQLEIDGPLQFDASIDKGVAKKKMPNSQVAGQASVFIFPDLNAGNIAYKAVQRSAKAVAIGPILQGLNKPINDLSRGALVEDIVNTVLISAIQAQDYEGHHHHHH | not soluble
MILLDTNVISEPLRPQPNERVVAWLDSLILEDVYLSAITVAEMRLGVALLLNGKKKNVLHERMEQSILPLFAGRILPFDEPVAAIYAQIRSYAKTHGKEIAAADGYIAATAKQHSMTVATRDTGSFFAADVAVFNPWHLEHHHHHH | soluble
MGSSHHHHHHSSGLVPRGSHMASMKQIKKLLVANRGEIAIRIFRAAAELDISTVAIYSNEDKSSLHRYKADESYLVGSDLGPAESYLNIERIIDVAKQANVDAIHPGYGFLSENEQFARRCAEEGIKFIGPHLEHLDMFGDKVKARTTAIKADLPVIPGTDGPIKSYELAKEFAEEAGFPLMIKATSGGGGKGMRIVREESELEDAFHRAKSEAEKSFGNSEVYIERYIDNPKHIEVQVIGDEHGNIVHLFERDCSVQRRHQKVVEVAPSVGLSPTLRQRICDAAIQLMENIKYVNAGTVEFLVSGDEFFFIEVNPRVQVEHTITEMVTGIDIVKTQILVAAGADLFGEEINMPQQKDITTLGYAIQCRITTEDPLNDFMPDTGTIIAYRSSGGFGVRLDAGDGFQGAEISPYYDSLLVKLSTHAISFKQAEEKMVRSLREMRIRGVKTNIPFLINVMKNKKFTSGDYTTKFIEETPELFDIQPSLDRGTKTLEYIGNVTINGFPNVEKRPKPDYELASIPTVSSSKIASFSGTKQLLDEVGPKGVAEWVKKQDDVLLTDTTFRDAHQSLLATRVRTKDMINIASKTADVFKDGFSLEMWGGATFDVAYNFLKENPWERLERLRKAIPNVLFQMLLRASNAVGYKNYPDNVIHKFVQESAKAGIDVFRIFDSLNWVDQMKVANEAVQEAGKISEGTICYTGDILNPERSNIYTLEYYVKLAKELEREGFHILAIKDMAGLLKPKAAYELIGELKSAVDLPIHLHTHDTSGNGLLTYKQAIDAGVDIIDTAVASMSGLTSQPSANSLYYALNGFPRHLRTDIEGMESLSHYWSTVRTYYSDFESDIKSPNTEIYQHEMPGGQYSNLSQQAKSLGLGERFDEVKDMYRRVNFLFGDIVKVTPSSKVVGDMALYMVQNDLDEQSVITDGYKLDFPESVVSFFKGEIGQPVNGFNKDLQAVILKGQEALTARPGEYLEPVDFEKVRELLEEEQQGPVTEQDIISYVLYPKVYEQYIQTRNQYGNLSLLDTPTFFFGMRNGETVEIEIDKGKRLIIKLETISEPDENGNRTIYYAMNGQARRIYIKDENVHTNANVKPKADKSNPSHIGAQMPGSVTEVKVSVGETVKANQPLLITEAMKMETTIQAPFDGVIKQVTVNNGDTIATGDLLIEIEKATD | soluble
MSVTAPSARPAPDHHAQFLQLLDTSLTQNAFIKLVLAKHVGPEADLQRLIIKQLTVKEQPCLSFVYRYKTRDITKNFSLDEGIAAIAELLPAAFKNAHLLTLTDEVQLEYSKKGKSSLFKGKPQTQRDAPSAEHNREKNRFLDLSRPFLADLGVTNKQHELIPAMSRKWKQINKFIEVFSHALGSSPIKLDQPVRVADFGSGKGYLTFAIHDYLRNTLKAEGEVTGVELREDMVTLCNAAAQRLEHPGLVFKCGDVRSVAPSQLEVMIALHACDIATDYAIHTGIRSGAAIIMCSPCCHKQIRQQIQSPQLLKPMLQYGLHLGQQAEMVTDSLRALFLEACGYETKVFEFISLEHTNKNKMILAVKRAEPQDPSQLLARIEELKAFYQISEHCLETLLKADGYLG | soluble
MADYTTIAAQPRNEFGKGFARRLRVAGQVPGVIYGVDVEAPIHFSINRLELHAVLRAHGVNAIIELDIEGEKHLTMIKHVDQNVLTLNADHVDLLAIKRGEKVEVEVPVVLTGETAPGTTLVQDADVVLVEADVLSIPEEITFSVEGLDVDSKVLAGDLAMPANTSLVADAETVIASVNHEEVAEEAEETEGEDAEEAPAAEGEE | soluble
MSLALIVQKFGGTSVGTVERIEQVAEKVKKFREAGDDVVVVVSAMSGETNRLIGLANQIMEQPVPRELDVMVSTGEQVTIALLSMALIKRGVPAVSYTGNQVRILTDSAHTKARILHIDDTHIRADLKAGRVVVVAGFQGVDGNGNITTLGRGGSDTTGVALAAALKADECQIYTDVDGVYTTDPRVVPQARRLDKITFEEMLEMASLGSKVLQIRAVEFAGKYNVPLRVLHSFQEGPGTLITIDDEEESMEQPIISGIAFNRDEAKLTIRGVPDTPGVAFKILGPISAANVEVDMIVQNVAHDNTTDFTFTVHRNDYLNALEILKQTAANIGAREAIGDTNIAKVSIVGVGMRSHAGVASRMFEALAKESINIQMISTSEIKVSVVIEEKYLELAVRALHTAFELDAPARQGEEGHHHHHH | soluble
SLENYWVDERTLVVSGDFFGVSTGLLGGWKRVRHAFNHTVSEEFHSMEPAEYLRKVARGYGLKSYFGLLTSVPIEKLSVKGCGEVTVFATAGVMNPNERVGTINIIAVFECRMSRAAMLNAIITATEAKTKALLEEGHNFTGTNTDAVVVLCTQKGGYHRYCGPASEVGQKLWRCAGEAVKDSLARW | soluble
MWKTYTRYQAVYKKAQWPLTLYFDGECPLCAREIKVLRARAAADRLLFVDISDDAFDASLLGLTLPQMESSLHARFDDGTWVTGLDATLWSWRAAGLGKWVAPLSWPILRPLFTVLYRLFCRFRPHLAWLPHPDGGRRCSKGSCTVAESVVMKSEASAEKKIS | not soluble
MGSDKIHHHHHHMEVERLSLKEFCDMVAERKPTPGGGAVGSVVGAMACALAEMVANFTRKKKGYEDVEPEMERIVEAMEEARLKLFDLAKKDMEAFEKVMKAYKSSEGELQNALKEAASVPMDVIRVMKDLAHELEKLAEFGNKNLASDTLNAADLCHAVFQVEKVNVLINLKEISDETFRKNMLEELEEQEAQIEGCYQRVKKMLEGIVWSSK | soluble
MESRYVLTGRYDSAPATDGSGTALGWTVAWKNNYRNAHSATTWSGQYVGGAEARINTQWLLTSGTTEANAWKSTLVGHDTFTKVKPSAASGGGSAEAGITGTWYNQLGSTFIVTAGADGALTGTYESA | soluble
MTHNHHHQAVDNLLNVFSRASHDLTVVHSKLDKEFQQMYPANANPMKLIQRIKKLQEDVTLLKHQCLDLLSAKQDLIDKAQTTLVGNCNLIQKMNASLGESTNGDTDDALADFNQIIDEWTMQVRSRTVGETEDADKEDINKMLFSAICHTN | soluble
MTNPNIPDDLLAKIAKKMADKCWWYLGPMLKSGPRGRDIVYRPDVLKNANIFSMCDDPDDFYAAGHDPNDINSEGRYRPFFKWCLQAGNPTAIYHEGLRLVTHESDIQGAILHLERIAPRNAAATLACAILYICAGNAHMGGVYLRLFGSNHYALESEDARDI | soluble
MGSDKIHHHHHHMPHPYHERLNFKTELPLRVISHGTVGPKMVLPHWHRAVELAYAYRGQPGTAHIGRSTYHMLADHLYVINSEVVHSYETFLDEDNQIVTLLLPASWLRNAVADEQLPIWGPLDLDLQSAVYQPLAKAVQTLVAGVITPSSARSAYLTSLGAEYQLVGQLLKHLTVNGQVTSDQLPLPAPLRQAVTELQENYAQPVSIANLAEQLNYSSVYFSRYFKDYMGISPKAYLGQIRLERATSLLMTSQDSIQNIALKTGFSTEKNFFVTFKQYYQMTPRTYRQRYSAQQSWS | not soluble
MNIVNKDSKNTFTRMCIGEAIIKLLKDTDFDKIRITSVAKCAGVSRITFYKYYESIHDALCDYLNIIIIEYLEECANNPENGSFLDYSHILFALEFFNRYKDYFLTLSRCGLHSILINSINNFMSEHFTNPKNYSEYRLYCYSGGLLNTFLKWEENGCDCDAGEIARTLEELYS | not soluble
MKTENAKTNQTLVENSLNTQLSNWFLLYSKLHRFHWYVKGPHFFTLHEKFEELYDHAAETVDTIAERLLAIGGQPVATVKEYTEHASITDGGNETSASEMVQALVNDYKQISSESKFVIGLAEENQDNATADLFVGLIEEVEKQVWMLSSYLG | soluble
